For the assay, the target named is Human CD137 ECD (human). Description: SPR, vs parent H183/L072. On the technique in general: Surface plasmon resonance follows binding to a sensor surface in real time, without labels.

Numbering of substitutions follows the chain as printed. Numbers in names are those of the source.

Sequence of Human CD137 ECD (human) (chain, as listed by the source limits assumed): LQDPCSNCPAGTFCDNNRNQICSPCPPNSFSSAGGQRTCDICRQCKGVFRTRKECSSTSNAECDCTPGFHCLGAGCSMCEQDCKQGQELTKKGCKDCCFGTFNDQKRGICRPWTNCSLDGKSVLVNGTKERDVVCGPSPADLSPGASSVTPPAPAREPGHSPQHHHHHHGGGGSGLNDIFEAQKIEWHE

B1: dBBDu183H A102K / dBBDu072L (antibody, name in Kabat numbering, V domains shown)
VH: QVQLVESGGGLVQPGRSLRLSCAASGFTFSNAWMHWVRQAPGKGLEWVAQIKDKGNAYAAYYAPSVKGRFTISRDDSKNSIYLQMNSLKTEDTAVYYCHYVHYASASTVLPAFGVDKWGQGTTVTVSS
VL: DIVMTQSPLSLPVTPGEPASISCQASQELVHMNRNTYLHWYQQKPGQAPRLLIYKVSNRFPGVPDRFSGSGSGTDFTLKISRVEAEDVGVYYCAQGTSVPFTFGQGTKLEIK
Turning to B1, the fold change of affinity was determined as 0 fold.

B2: dBBDu183H S100aR / dBBDu072L (antibody, name in Kabat numbering, V domains shown)
VH: B1 VH with S107R, K117A
VL: B1 VL
As to B2, the fold change of affinity stood at 0 fold.

B3: dBBDu183H L100dF / dBBDu072L (antibody, name in Kabat numbering, V domains shown)
VH: B1 VH with L110F, K117A
VL: B1 VL
B3: the fold change of affinity stood at 0 fold.

B4: dBBDu183H Y94R / dBBDu072L (antibody, name in Kabat numbering, V domains shown)
VH: B1 VH with Y100R, K117A
VL: B1 VL
Take B4: the fold change of affinity came to 0 fold.

B5: dBBDu183H V100iF / dBBDu072L (antibody, name in Kabat numbering, V domains shown)
VH: B1 VH with V115F, K117A
VL: B1 VL
For the molecule B5, the fold change of affinity amounted to 0 fold.

B6: dBBDu183H A100F / dBBDu072L (antibody, name in Kabat numbering, V domains shown)
VH: B1 VH with A106F, K117A
VL: B1 VL
Consider B6, for which the fold change of affinity turned out to be 0 fold.

B7: dBBDu183H H93R / dBBDu072L (antibody, name in Kabat numbering, V domains shown)
VH: B1 VH with H99R, K117A
VL: B1 VL
Turning to B7, the fold change of affinity is 0 fold.

B8: dBBDu183H Y97R / dBBDu072L (antibody, name in Kabat numbering, V domains shown)
VH: B1 VH with Y103R, K117A
VL: B1 VL
In the case of B8, the fold change of affinity amounted to 0 fold.

B9: dBBDu183H T100bF / dBBDu072L (antibody, name in Kabat numbering, V domains shown)
VH: B1 VH with T108F, K117A
VL: B1 VL
Regarding B9, the fold change of affinity was 0 fold.

B10: dBBDu183H G100hF / dBBDu072L (antibody, name in Kabat numbering, V domains shown)
VH: B1 VH with G114F, K117A
VL: B1 VL
In the case of B10, the fold change of affinity amounted to 0 fold.

B11: dBBDu183H D101F / dBBDu072L (antibody, name in Kabat numbering, V domains shown)
VH: B1 VH with D116F, K117A
VL: B1 VL
As for B11, the fold change of affinity amounted to 0 fold.

B12: dBBDu183H V100iR / dBBDu072L (antibody, name in Kabat numbering, V domains shown)
VH: B1 VH with V115R, K117A
VL: B1 VL
On to B12, for which the fold change of affinity is 0 fold.

B13: dBBDu183H G100hR / dBBDu072L (antibody, name in Kabat numbering, V domains shown)
VH: B1 VH with G114R, K117A
VL: B1 VL
As for B13, the fold change of affinity was 0 fold.

B14: dBBDu183H A102R / dBBDu072L (antibody, name in Kabat numbering, V domains shown)
VH: B1 VH with K117R
VL: B1 VL
As for B14, the fold change of affinity amounted to 0 fold.

B15: dBBDu183H A100fF / dBBDu072L (antibody, name in Kabat numbering, V domains shown)
VH: B1 VH with A112F, K117A
VL: B1 VL
Consider B15, for which the fold change of affinity stood at 0 fold.

B16: dBBDu183H A98F / dBBDu072L (antibody, name in Kabat numbering, V domains shown)
VH: B1 VH with A104F, K117A
VL: B1 VL
As for B16, the fold change of affinity turned out to be 0 fold.

B17: dBBDu183H H93F / dBBDu072L (antibody, name in Kabat numbering, V domains shown)
VH: B1 VH with H99F, K117A
VL: B1 VL
For B17, the fold change of affinity is 0 fold.

B18: dBBDu183H A98R / dBBDu072L (antibody, name in Kabat numbering, V domains shown)
VH: B1 VH with A104R, K117A
VL: B1 VL
For B18, the fold change of affinity was 0 fold.

B19: dBBDu183H V100cF / dBBDu072L (antibody, name in Kabat numbering, V domains shown)
VH: B1 VH with V109F, K117A
VL: B1 VL
B19: the fold change of affinity was 0 fold.

B20: dBBDu183H V95R / dBBDu072L (antibody, name in Kabat numbering, V domains shown)
VH: B1 VH with V101R, K117A
VL: B1 VL
As to B20, the fold change of affinity came to 0 fold.

B21: dBBDu183H S100aF / dBBDu072L (antibody, name in Kabat numbering, V domains shown)
VH: B1 VH with S107F, K117A
VL: B1 VL
On to B21, for which the fold change of affinity turned out to be 0 fold.

B22: dBBDu183H H96R / dBBDu072L (antibody, name in Kabat numbering, V domains shown)
VH: B1 VH with H102R, K117A
VL: B1 VL
Take B22: the fold change of affinity was 0 fold.

B23: dBBDu183H P100eF / dBBDu072L (antibody, name in Kabat numbering, V domains shown)
VH: B1 VH with P111F, K117A
VL: B1 VL
On to B23, for which the fold change of affinity is 0 fold.

B24: dBBDu183H A102F / dBBDu072L (antibody, name in Kabat numbering, V domains shown)
VH: B1 VH with K117F
VL: B1 VL
Turning to B24, the fold change of affinity stood at 0 fold.

B25: dBBDu183H V95F / dBBDu072L (antibody, name in Kabat numbering, V domains shown)
VH: B1 VH with V101F, K117A
VL: B1 VL
As for B25, the fold change of affinity was 0 fold.

B26: dBBDu183H A100fR / dBBDu072L (antibody, name in Kabat numbering, V domains shown)
VH: B1 VH with A112R, K117A
VL: B1 VL
As to B26, the fold change of affinity stood at 0 fold.

B27: dBBDu183H L100dR / dBBDu072L (antibody, name in Kabat numbering, V domains shown)
VH: B1 VH with L110R, K117A
VL: B1 VL
B27: the fold change of affinity turned out to be 0 fold.

B28: dBBDu183H F100gR / dBBDu072L (antibody, name in Kabat numbering, V domains shown)
VH: B1 VH with F113R, K117A
VL: B1 VL
Consider B28, for which the fold change of affinity was found to be 0 fold.

B29: dBBDu183H D101R / dBBDu072L (antibody, name in Kabat numbering, V domains shown)
VH: B1 VH with D116R, K117A
VL: B1 VL
Take B29: the fold change of affinity stood at 0 fold.

B30: dBBDu183H S99F / dBBDu072L (antibody, name in Kabat numbering, V domains shown)
VH: B1 VH with S105F, K117A
VL: B1 VL
B30: the fold change of affinity is 0 fold.

B31: dBBDu183H T100bR / dBBDu072L (antibody, name in Kabat numbering, V domains shown)
VH: B1 VH with T108R, K117A
VL: B1 VL
In the case of B31, the fold change of affinity is 0 fold.

Source of the values: US20210388087A1.
